Test results taken from publication PMC9432830 (Science Advances, 2022).
Read-outs that look alike come from different tables or passages of the source. Each block holds one molecule with its values, some of them ahead of it.

Key:
[1] = target: ctMic60sol V455D/F461D (Chaetomium thermophilum); assay: ITC
[2] = target: Chaetomium thermophilum Mic60 excluding the TM region (residues 208 to 691) (Chaetomium thermophilum); assay: native gel or EMSA
[3] = target: Chaetomium thermophilum Mic60 excluding the TM region (residues 208 to 691) (Chaetomium thermophilum); assay: native gel or EMSA; remark: listed apart in the source
[4] = target: ctMic60sol L676D (Chaetomium thermophilum); assay: native gel or EMSA
[5] = target: ctMic60sol R525C (Chaetomium thermophilum); assay: native gel or EMSA
[6] = target: the molecule itself; assay: crystal structure

fold reduction of affinity against ctMic60sol [1]: 30 fold
Molecule: Chaetomium thermophilum Mic19 (natural protein)

stoichiometry N [2]: 4
stoichiometry N [3]: 2
Molecule: Chaetomium thermophilum Mic60 excluding the TM region (residues 208 to 691) (domain or fragment)

stoichiometry N [4]: 2
Molecule: ctMic60sol L676D (domain or fragment)

stoichiometry N [5]: 4
Molecule: ctMic60sol R525C (domain or fragment)

B1: Mic60 coiled-coil domain from Lachancea thermotolerans (amino acids 207 to 382) (domain or fragment, UniProt C5E325 207-382, looked up)
chain: NEDIRTNVAESVAVQYGQASKDLHESFEIRAKSREVELTQQFLNEFNAFKAQLEKHSSEELASALKANEQALLAKQSNEVALLSMKQVEEFTKILSEKLDQERQGRLSKLEALNGSVQELAEAVDQVDTLVMKSEVLSQLSLLTTLLKNKLHAGDESSVKIDSELARLKTLCDILP
stoichiometry N [6]: 4
